IntAct's records for PubMed 19959993

B1: Protein RED1 (Saccharomyces cerevisiae), P14291 (parent)
chain: MEGLKKKIFGVCLKNDLAQTRNETKGIHYGLMTLETSKQLQEFLHLLVIKREVIQNFELLFHIINVAVKITDSNLPSDDIWHFILKLRFSSEINIDEDSKVLNYLLETGIAMENPVSWKCLAVISSILSSVPQSKKIITNLIETEHAKKIGQLFDNIQDLQQGNFLVEILSNCFKKSASNSKKVEKIPQLWQSRSKNKFFFENEFYPFSSKNGSLQTCQFLCNNFMSTLSFTGILRQVSYSGSETLKNLRIFKKKDDENSYFIQCIYNKIYLWLDEKAPLEFERKKIRITKNLKNKIQIKLRQPFHECVRTTADKTALLFNKTKGFQLEFEDEKLGETFFHNVNNIPKISEVQNFLVLDYIEEEPENEGEEEEQIGRADEQKEDEEEESLDELSTPMVYPIKSSIPHNHNEKVQLVTPDRSVSIRSDEWDLKSNTEDEEGNVLADLKISSTKETKRQTDYVHIDSEDQSPVVSAQMRKMRRESTKTLEILRQEFKDKDVQNKEDQSEQIQNPFVNTSSLVVGKSCLVNPKEKPNIDQTVVGITELKSNSSIKKRDINILDTIFGQPPSKKQKQFHKKEKKKQQKKLTNFKPIIDVPSQDKRNLRSNAPTKPKSIKVSKLRTDKKVTGEKSSPETAAEKVDDQTVRSNDEQAMSRATKEKCFPDVNEGKEITKDDAKVSLESKKNNETFVDSSVVEKHTPPDKDCNNCNITDILESTTVIDLQSPHGLSAPGQNTFTNKLQEQIYSSINHFSNELVRKISIINQELNKKILKELSEKYQKLFSELQDNFQNDTNEMLKFMGEIKDMMNLPEDQLVHAIRTRKFDNNKR
B2: Synaptonemal complex protein ZIP1 (Saccharomyces cerevisiae), P31111 (parent)
chain: MSNFFRDSSMGFKPRPNIFAKLRVRDVDSDSSANTVVENSSNCLDVGSSIEGDDTFKKPHKTSTEQELITSMSLSQRNHGYSDDMEIGSPKKTTSTDQYNRILKNDVAAIENDTDEDFEITEVREVSEGVAKETKESHGDPNDSETTLKDSKMHEYTMTNGKAPLHTSINNSSTSSNDVLLEAFTNTQRICSNLKQELQKQQQDNAKLKVRLQSYASNSDKINEKVGKYKSCLETLQERIATLTSHKNNQETKLKDLRQNHQLYQRRISGFKTSIENLNKTINDLGKNKKEADAELMKKGKEIEYLKRELDDCSGQLSEEKIKNSSLIQEMGKNREEMIKSIENFFSEDKAHHLLQFNKFEERVHDLFEKKLQKHFDVAKDTLNVGLRNTTVELSSNTETMLKQQYEDIKENLEQKMSSSKDEMAKTINELSVTQKGLIMGVQEELLTSSGNIQTALVSEMNNTRQELLDDASQTAKNYASLENLVKAYKAEIVQSNEYEERIKHLESERSTLSSQKNQIISSLGTKEAQYEDLVKKLEAKNIEISQISGKEQSLTEKNENLSNELKKVQDQLEKLNNLNITTKSNYENKISSQNEIVKALVSENDTLKQRIQQLVEIKENEQKDHTTKLEAFQKNNEQLQKLNVEVVQLKAHELELEEQNRHLKNCLEKKETGVEESLSDVKTLKQQVIVLKSEKQDITAEKLELQDNLESLEEVTKNLQQKVQSQKRELEQKIKELEEIKNHKRNEPSKKGTQNFTKPSDSPKKNATTSNLFPNNSAAIHSPMKKCPKVDHISKSRINSSKETSKFNDEFDLSSSSNDDLELTNPSPIQIKPVRGKIKKGSNCMKPPISSRKKLLLVEDEDQSLKISKKRRRK
partner: B1 chain

Variants of: B1
Details: with smt3_yeast SMT3, Q12306
Chain of smt3_yeast SMT3, Q12306 (Q12306 whole entry): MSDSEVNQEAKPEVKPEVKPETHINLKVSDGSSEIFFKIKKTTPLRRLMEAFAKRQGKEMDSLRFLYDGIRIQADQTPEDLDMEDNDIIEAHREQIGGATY

**Q.** For T717R, which “effect of a mutation on the interaction” value is on record?
**A.** The value was “decreasing interaction”.

**Q.** Which “effect of a mutation on the interaction” value does the source give for S715R here?
**A.** The value was “decreasing interaction”.

Variants of: B1
Details: with smt3_yeast SMT3, Q12306
Remark: another data set of the same source

**Q.** How did the “effect of a mutation on the interaction” value turn out when I758R was run?
**A.** The value was “decreasing interaction”.

Variants of: B2
Details: with red1_yeast RED1, P14291

**Q.** With D863R as the variant, how does the “effect of a mutation on the interaction” value read?
**A.** The value was “decreasing interaction”.

**Q.** Q864R was tested. Which “effect of a mutation on the interaction” value did it give?
**A.** The value was “decreasing interaction”.

**Q.** For E862R, which “effect of a mutation on the interaction” value is on record?
**A.** Its value is “decreasing interaction”.
